Drawing on the supplement of paper PMC9732359, this text covers protein stability index for 38 sequences.

± gives the uncertainty stated by the source.

The nature of the data set: protein stability index of a GFP-peptide fusion (yeast GPS) (PSI 1-4); higher = more stable; sorted into four equal gates, so the index is relative within each strain. Put shortly: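 For each peptide, the protein stability index sums the read frequency in every gate after multiplying it by the gate number. Read frequencies came from plasmids that were PCR-amplified from each gate and Illumina-sequenced, with reads assigned to strains by barcodes. The gates were four equal bins of GFP/Cherry fluorescence ratio applied to mid-log yeast in leucine-free medium carrying a pooled library of tiled 17-residue yeast protein peptides fused downstream of GFP on a Cherry-expressing plasmid.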

In the case of VYREVCAACHSLDRVAW [CYT1], the protein stability index is 3.36 ± 0.26 (doa10∆), 3.04 ± 0.12 (pdr5∆), 2.71 ± 0.17 (san1∆) and 2.86 ± 0.13 (ubr1∆).

In turn, SKKTGQFNAQGVRDINC [POP1] displayed a protein stability index (san1∆) of 3.16 ± 0.12.

With HILLTELLAYQFASPVR [FAS2], the protein stability index runs as follows: (doa10∆) 1.81 ± 0.019; (pdr5∆) 1.7 ± 0.018; (san1∆) 1.81 ± 0.027; (ubr1∆) 1.768 ± 0.017.

Consider ETNLQTFLPPLLLKLAS [ECM29], for which the protein stability index worked out at 1.65 ± 0.038 (doa10∆), 1.85 ± 0.043 (pdr5∆), 1.62 ± 0.063 (san1∆) and 2.11 ± 0.034 (ubr1∆).

As for GGGAARRQAVDVSPLRR [RPS5], the protein stability index came out at 2.28 ± 0.1 (doa10∆), 1.76 ± 0.056 (pdr5∆), 2.15 ± 0.11 (san1∆) and 1.85 ± 0.093 (ubr1∆).

For DDSDNVMSSDDENAPVA [PRE10], the protein stability index (doa10∆) is 3.12 ± 0.087, the protein stability index (pdr5∆) is 3.42 ± 0.11, the protein stability index (san1∆) worked out at 3.49 ± 0.11 and the protein stability index (ubr1∆) was 3.11 ± 0.14.

In turn, GKVVGDKWESYLNLLQE [RPB10] had a protein stability index (doa10∆) of 3.24 ± 0.076, a protein stability index (pdr5∆) of 2.65 ± 0.086, a protein stability index (san1∆) of 2.49 ± 0.11 and a protein stability index (ubr1∆) of 3.26 ± 0.055.

On to ADESKMAKLNECPLDPG [RET1], for which the protein stability index reads like this: (doa10∆) 2.64 ± 0.083; (pdr5∆) 2.74 ± 0.095; (san1∆) 2.85 ± 0.082; (ubr1∆) 2.08 ± 0.079.

TIVNDSNYDWLFQLLNA [RPN9]: the protein stability index is, setting by setting: (doa10∆) 2.34 ± 0.074; (pdr5∆) 2.58 ± 0.077; (san1∆) 2.34 ± 0.078; (ubr1∆) 2.61 ± 0.048.

Turning to TCRKHTQHKVTQYKAGK [RPL42A], the protein stability index reads like this: (doa10∆) 3.09 ± 0.14; (pdr5∆) 2.85 ± 0.12; (san1∆) 2.62 ± 0.07; (ubr1∆) 2.91 ± 0.088.

On to KDIAKRQFKEILTVKEE [RRP40], for which the protein stability index stood at 2.2 ± 0.045 (doa10∆), 2.4 ± 0.048 (pdr5∆), 2.46 ± 0.057 (san1∆) and 2.52 ± 0.042 (ubr1∆).

With PADRPQGRRNSRNFSTR [SIR4], the protein stability index reads like this: (doa10∆) 3.02 ± 0.11; (pdr5∆) 3.21 ± 0.074; (san1∆) 3.1 ± 0.071; (ubr1∆) 3.15 ± 0.074.

In turn, ERYYELAFDKLNVPVFQ [ARP7] displayed a protein stability index (doa10∆) of 1.87 ± 0.064, a protein stability index (pdr5∆) of 2.17 ± 0.073, a protein stability index (san1∆) of 1.83 ± 0.1 and a protein stability index (ubr1∆) of 2.07 ± 0.07.

Take MSQGQSKKLDVTVEQLR [NSL1]: the protein stability index worked out at 2.64 ± 0.075 (doa10∆), 2.74 ± 0.075 (pdr5∆), 2.7 ± 0.056 (san1∆) and 2.78 ± 0.075 (ubr1∆).

With KWEQTYKKPTGGIVTVR [FAS1], the protein stability index (doa10∆) amounted to 3.07 ± 0.064, the protein stability index (pdr5∆) was determined as 2.04 ± 0.054, the protein stability index (san1∆) came to 2.2 ± 0.1 and the protein stability index (ubr1∆) amounted to 2.37 ± 0.053.

STTAALQSISSLTISLY [RPN7]: the protein stability index runs as follows: (doa10∆) 1.74 ± 0.041; (pdr5∆) 1.82 ± 0.035; (san1∆) 1.95 ± 0.049; (ubr1∆) 2.12 ± 0.047.

On to HIKKLLHQYYGDDESKI [FAS1], for which the protein stability index worked out at 2.24 ± 0.084 (doa10∆), 2.9 ± 0.085 (pdr5∆), 3.07 ± 0.074 (san1∆) and 3 ± 0.12 (ubr1∆).

Regarding FEQPSQREEAKKVVKKA [RPL27A], the protein stability index reads like this: (doa10∆) 2.95 ± 0.15; (pdr5∆) 3.28 ± 0.13; (san1∆) 3.13 ± 0.15; (ubr1∆) 3.05 ± 0.14.

As for QRLIFAGKQLEDGRTLS [RPS31], the protein stability index is 2.8 ± 0.12 (doa10∆), 2.97 ± 0.078 (pdr5∆), 3.38 ± 0.067 (san1∆) and 2.27 ± 0.12 (ubr1∆).

Consider ITGNKIMRILKSNGLAP [RPS13], for which the protein stability index is, setting by setting: (doa10∆) 3.01 ± 0.14; (pdr5∆) 3.32 ± 0.18; (san1∆) 2.53 ± 0.16; (ubr1∆) 2.91 ± 0.057.

For QQQQDLQQQQQVVTTVA [SNF6], the protein stability index runs as follows: (doa10∆) 1.55 ± 0.097; (pdr5∆) 1.87 ± 0.083; (san1∆) 1.87 ± 0.23; (ubr1∆) 1.54 ± 0.092.

Take EGAARGTSVYLVDKRID [DIS3]: the protein stability index reads like this: (doa10∆) 3.38 ± 0.17; (pdr5∆) 3.33 ± 0.14; (san1∆) 3.13 ± 0.086; (ubr1∆) 3.08 ± 0.12.

As for INDRNDRAIRKTCQWYS [DIS3], the protein stability index by setting is: (doa10∆) 3.21 ± 0.087; (pdr5∆) 3.09 ± 0.097; (san1∆) 2.98 ± 0.068; (ubr1∆) 3.25 ± 0.12.

In the case of MKRMVAQWERSKLSQEF [SNF12], the protein stability index (doa10∆) worked out at 3.23 ± 0.22, the protein stability index (pdr5∆) is 3.05 ± 0.15, the protein stability index (san1∆) was determined as 3.11 ± 0.23 and the protein stability index (ubr1∆) stood at 3.21 ± 0.087.

As for KVSSLKMFIQRILAMCV [YCS4], the protein stability index turned out to be 2.64 ± 0.069 (doa10∆), 2.48 ± 0.061 (pdr5∆), 2.23 ± 0.063 (san1∆) and 2.88 ± 0.057 (ubr1∆).

SKFYNMKQPYVFVKKHH [SSN2]: the protein stability index (doa10∆) came out at 1.58 ± 0.11, the protein stability index (pdr5∆) stood at 1.5 ± 0.11, the protein stability index (san1∆) stood at 1.24 ± 0.14 and the protein stability index (ubr1∆) was 1.28 ± 0.044.

With YWTQYLGLFIHKISFSG [YJL039C/NUP192], the protein stability index is, setting by setting: (doa10∆) 1.99 ± 0.076; (pdr5∆) 1.8 ± 0.058; (san1∆) 1.59 ± 0.1; (ubr1∆) 1.89 ± 0.05.

Consider KNTQSPQTPLVEPVTER [SNU114], for which the protein stability index (pdr5∆) came to 2.87 ± 0.15, the protein stability index (san1∆) came out at 2.72 ± 0.097 and the protein stability index (ubr1∆) worked out at 3.01 ± 0.13.

Regarding PTLVRSVISGNLSLYEA [CSN12], the protein stability index (doa10∆) was 2.92 ± 0.085, the protein stability index (pdr5∆) was 3.05 ± 0.092, the protein stability index (san1∆) stood at 3.06 ± 0.068 and the protein stability index (ubr1∆) was determined as 2.91 ± 0.054.

As for GADVTNTTQDNGGDKEL [YCS4], the protein stability index amounted to 3.18 ± 0.12 (doa10∆), 3.19 ± 0.083 (pdr5∆), 3.1 ± 0.065 (san1∆) and 3.26 ± 0.074 (ubr1∆).

As for MAPNTSRKQKVIKTLTV [RPL22B], the protein stability index came out at 2.1 ± 0.18 (doa10∆), 2 ± 0.088 (pdr5∆), 2.6 ± 0.13 (san1∆) and 1.97 ± 0.093 (ubr1∆).

On to GDHSSVPVALKGQGPFT [YMR129W/POM152], for which the protein stability index worked out at 1.87 ± 0.25 (doa10∆) and 1.83 ± 0.2 (ubr1∆).

For the sequence AHIAKNLINLSIGASIA [YCS4], the protein stability index is, setting by setting: (doa10∆) 1.34 ± 0.068; (pdr5∆) 1.37 ± 0.072; (san1∆) 1.94 ± 0.17; (ubr1∆) 1.78 ± 0.057.

On to KSSDSNDSNPSFSFSIP [YLR335W/NUP2], for which the protein stability index (doa10∆) was 2.62 ± 0.046, the protein stability index (pdr5∆) was determined as 2.53 ± 0.048, the protein stability index (san1∆) was found to be 2.31 ± 0.058 and the protein stability index (ubr1∆) was 2.81 ± 0.034.

EKSGISKMSDESFAELM [RPC17]: the protein stability index was found to be 3.26 ± 0.14 (doa10∆), 3.27 ± 0.11 (san1∆) and 3.42 ± 0.2 (ubr1∆).

As to FKNTRETAQAINGWELT [RPL17A], the protein stability index is, setting by setting: (doa10∆) 1.35 ± 0.031; (pdr5∆) 1.58 ± 0.04; (san1∆) 2.06 ± 0.062; (ubr1∆) 1.4 ± 0.033.

Regarding IGVVSLTNGVTEHVRQN [RRP6], the protein stability index amounted to 3.29 ± 0.14 (doa10∆), 3.42 ± 0.11 (pdr5∆), 3.32 ± 0.099 (san1∆) and 3.33 ± 0.063 (ubr1∆).

EARINELLSSLEGKGSL [RPP2B] displayed a protein stability index (doa10∆) of 2.74 ± 0.12, a protein stability index (pdr5∆) of 2.79 ± 0.099, a protein stability index (san1∆) of 2.91 ± 0.047 and a protein stability index (ubr1∆) of 3.2 ± 0.077.
